B1: pNB-Est17: para-nitrobenzyl esterase, enzyme according to Seq ID No. 1, from Bacillus subtilis (17A1), 489 amino acids (protein, listed as Bacillus subtilis)
chain: MTHQIVTTQYGKVKGTTENGVHKWKGIPYAKPPVGQWRFKAPEPPEVWEDVLDATAYGPICPQPSDLLSLSYTELPRQSEDCLYVNVFAPDTPSQNLPVMVWIHGGAFYLGAGSEPLYDGSKLAAQGEVIVVTLNYRLGPFGFLHLSSFDEAYSDNLGLLDQAAALKWVRENISAFGGDPDNVTVFGESAGGMSIAALLAMPAAKGLFQKAIMESGASRTMTKEQAASTSAAFLQVLGINEGQLDKLHTVSAEDLLKAADQLRIAEKENIFQLFFQPALDPKTLPAEPEKAISEGAASGIPLLIGTTRDEGYLFFTPDSDVHSQETLDAALEYLLGKPLAEKAADLYPRSLESQIHMMTDLLFWRPAVAYASAQSHYAPVWMYRFDWHPKKPPYNKAFHALELPFVFGNLDGLERMAKAEITDEVKQLSHTIQSAWITFAKTGNPSTEAVNWPTYHEETRETLILDSEITIENDPESEKRQKLFPSKGE
B2: pNB-Est19: para-nitrobenzyl esterase, enzyme according to Seq ID No. 2, from Bacillus licheniformis (19C5), 489 amino acids (protein, listed as Bacillus licheniformis)
chain: B1 chain
B3: pNB-Est13: para-nitrobenzyl esterase, enzyme according to Seq ID No. 12, Bacillus licheniformis DSM13 (gi 52346943) (protein, listed as Bacillus licheniformis)
chain: MYDTTVETRFGKLKGRAENGVRIFKGVPYAKPPVGDLRFREPQRMEAWEGELDAFQFGPVCPQPDGVLPESAGVQKSEDCLYLNVYAPEEADGDLPVMVWIHGGAFYRGAGSEPLYDGTQLAKQGKVIVVTINYRLGPFGFLHLSSIDDSYSSNLGLLDQIAALEWVKDNIAFFGGDRHHITVFGESAGSMSIASLLAMPKAKGLFQQAIMESGASATMSDKLAKAAAERFLRILDIDHHHLERLHDVSDQELLEAADQLRTLMGENIFELIFLPALDEKTLPLKPEVAVAKGAAKEINLLIGTNRDEGVLFFPSDSDLLPESKINEILEEYMGKEAAEAASSLYPRSLEGHVDMMTDLIFWHPSVVFASAQSRYASVFMYRFDWHADSEQPPFNKAAHGLEIPFVFGNMDILEQLTGTKAGEEAQLLAEQIQAAWVSFARSGNPSTDDVSWPDYDEDSRKTLIFDQEVAVESDPYSDKRKMLTAPNPQI

How the values were obtained:
Type in all cases: biochemical
[1] = Titrimetric Michaelis-Menten kinetics, hydrolysis of dimethyl isophthalate; conditions: substrate DMIP; for kcat: assumes added enzyme = active enzyme; for vMax: titrimetric, 30° C., pH 9
Procedure: (§1) The enzyme activities of the esterases were measured with the titration apparatus 702 SAT (METROHM Ltd., Switzerland) for various substrates of the phthalate family (FIG. 4). The phthalates were dissolved in diethyl ether with 0.5 g Triton X100. The diethyl ether was then removed under a stream of nitrogen. 50 ml buffer (2 mM Tris/HCl, pH 9) was added, homogenized by ultrasound and used in different final concentrations (0.3 mM to 100 mM) in a total reaction volume of 2 mL (including enzyme). The reaction buffer was pre-incubated at 30° C. for 10 minutes. After addition of the enzyme, the NaOH consumption (concentration determination by triple titration with oxalic acid) at a reaction temperature of 30° C. was plotted. One unit is defined as the enzyme activity that releases 1 μmol acid per minute.
(§2) Titrimetric measurements were carried out to determine the kinetic constants vmax, kM, kcat and kcat/kM of the three para-nitrobenzyl esterases pNB-Est17, pNB-Est19 and pNB-Est13 towards different phthalates and terephthalates. The enzyme activities were determined for different substrate concentrations and evaluated according to MICHAELIS-MENTEN (see FIGS. 5 to 7). The measured kM- and vmax values and the added enzyme concentrations were used to calculate the kinetic constants (kcat and k2) and the catalytic efficiency (kcat/kM)—under the assumption that the added enzyme concentration was the same as the concentration of the active enzyme.
(§3) The data in FIGS. 5 to 7 and Tables 5 to 7 represent mean values from three independent titrimetric measurements with a relative standard deviation of less than 5%. The calculation of kcat and kcat/kM was based on the assumption that the added enzyme concentration was the same as the concentration of the active enzyme.

[2] = Substrate specificity to para-nitrophenyl esters: p-NP-butyrate; conditions: p-NP-butyrate 0.8 mM, phosphate buffer pH 8, room temperature, 410 nm
Procedure: (§4) For the determination of chain length specificities of the investigated esterases, p-nitrophenyl esters with different chain lengths were used as the substrate for the spectroscopic measurements of activity. To the p-nitrophenyl esters dissolved in 10 mL isopropanol were added 90 mL phosphate buffer (pH 8, disodium hydrogen phosphate and potassium dihydrogen phosphate). The final concentration of the substrate was 0.8 mM. Each 990 μL buffer-substrate mixture was mixed with 10 μL of the enzyme sample and incubated at room temperature for one minute. The increase in absorption at 410 nm was then measured (UV MC^2, SAFAS, Monaco). The enzyme activity was calculated using a molar extinction coefficient of 17100 [M^−1cm^−1], wherein 1 unit was defined as the quantity of enzyme that released 1 μmol p-nitrophenol per minute.
(§5) The data in Table 3 represent mean values from three independent measurements with a relative standard deviation of less than 10%.

[3] = Titrimetric Michaelis-Menten kinetics, hydrolysis of dimethyl phthalate; conditions: substrate DMP; for kcat: assumes added enzyme = active enzyme; for vMax: titrimetric, 30° C., pH 9
Procedure: as §1, §2, §3

[4] = Substrate specificity to para-nitrophenyl esters: p-NP-caprate; conditions: p-NP-caprate 0.8 mM, phosphate buffer pH 8, room temperature, 410 nm
Procedure: as §4, §5

[5] = Titrimetric Michaelis-Menten kinetics, hydrolysis of dimethyl terephthalate; conditions: substrate DMT; for kcat: assumes added enzyme = active enzyme; for vMax: titrimetric, 30° C., pH 9
Procedure: as §1, §2, §3

[6] = Titrimetric Michaelis-Menten kinetics, hydrolysis of diethyl terephthalate; conditions: substrate DET; for kcat: assumes added enzyme = active enzyme; for vMax: titrimetric, 30° C., pH 9
Procedure: as §1, §2, §3

[7] = Titrimetric Michaelis-Menten kinetics, hydrolysis of dibutyl phthalate; conditions: substrate DBP; for kcat: assumes added enzyme = active enzyme; for vMax: titrimetric, 30° C., pH 9
Procedure: as §1, §2, §3

[8] = Substrate specificity to para-nitrophenyl esters: p-NP-myristate; conditions: p-NP-myristate 0.8 mM, phosphate buffer pH 8, room temperature, 410 nm
Procedure: as §4, §5

[9] = Substrate specificity to para-nitrophenyl esters: p-NP-caprylate; conditions: p-NP-caprylate 0.8 mM, phosphate buffer pH 8, room temperature, 410 nm
Procedure: as §4, §5

[10] = Substrate specificity to para-nitrophenyl esters: p-NP-stearate; conditions: p-NP-stearate 0.8 mM, phosphate buffer pH 8, room temperature, 410 nm
Procedure: as §4, §5

[11] = Substrate specificity to para-nitrophenyl esters: p-NP-palmitate; conditions: p-NP-palmitate 0.8 mM, phosphate buffer pH 8, room temperature, 410 nm
Procedure: as §4, §5

[12] = Esterase activity by hydrolysis of bis-(p-methylbenzoic acid) ester of ethylene glycol (titration); conditions: titrimetric, 30° C., tris/HCl pH 9.0; for Specific Activity / vMax: mean of three measurements
Procedure: 2.4.2 Determination of the Enzymatic Activity
The cleavage of the bis-(p-methylbenzoic acid) ester of ethylene glycol catalyzed by the inventive enzymes affords 2 equivalents of 4-methylbenzoic acid and ethylene glycol (see FIG. 2).
For the preparation of the enzyme assay, the desired amount of substrate was mixed with 0.5 g Triton X100 and dissolved with heating in 50 mL ethanol (99%, denatured). Once all the substrate was dissolved, the solution was added to 50 mL buffer (2 mM tris/HCl buffer; pH 9.0) with intense stirring by Ultra-Turrax. This solution was then stirred at room temperature for at least 12 hours in order to remove a large part of the added ethanol. The thus-prepared substrate solution was immediately titrated. The reaction buffer was pre-incubated at 30° C. for 10 minutes.
Different final concentrations (0.67 mM to 50 mM) were used in a total reaction volume of 2 mL including enzyme. After addition of the enzyme, the NaOH consumption (concentration determination by triple titration with oxalic acid) with the titration apparatus 702 SAT (METROHM Ltd., Switzerland)) at a reaction temperature of 30° C. was plotted. One unit is defined as the enzyme activity that releases 1 μmol acid per minute.
In this and the subsequent examples, the following abbreviations are used for the tested esterases: enzyme according to Seq ID No. 12 (pNB-Est13), enzyme according to Seq ID No. 2 (pNB-Est19), enzyme according to Seq ID No. 1 (pNB-Est17). The data obtained for the cited esterases in Table 2 were determined by titrimetric measurements and represent mean values from: three independent measurements with a relative standard deviation of less than 5%.

[13] = Substrate specificity to para-nitrophenyl esters: p-NP-caproate; conditions: p-NP-caproate 0.8 mM, phosphate buffer pH 8, room temperature, 410 nm
Procedure: as §4, §5

[14] = Substrate specificity to para-nitrophenyl esters: p-NP-laurate; conditions: p-NP-laurate 0.8 mM, phosphate buffer pH 8, room temperature, 410 nm
Procedure: as §4, §5

[15] = Titrimetric Michaelis-Menten kinetics, hydrolysis of diethyl phthalate; conditions: substrate DEP; for kcat: assumes added enzyme = active enzyme; for vMax: titrimetric, 30° C., pH 9
Procedure: as §1, §2, §3

Molecule	kcat [1] [s⁻¹]	vMax [1] [U/mg]	Specific Activity [2] [U/mg]	kcat [3] [s⁻¹]	vMax [3] [U/mg]	Specific Activity [4] [U/mg]	kcat [5] [s⁻¹]	vMax [5] [U/mg]	kcat [6] [s⁻¹]	vMax [6] [U/mg]	vMax [7] [U/mg]	Specific Activity [8] [U/mg]	Specific Activity [9] [U/mg]	Specific Activity [10] [U/mg]	Specific Activity [11] [U/mg]	kcat [12] [s⁻¹]	Specific Activity [12] [µmol/min/mg]	vMax [12] [µmol/min]	Specific Activity [13] [U/mg]	Specific Activity [14] [U/mg]	other results
B1	38880	11.99	196.3	45672	14.09	10.2	60028	18.52	90998	28.06	48.03	<1	73.2	<1	<1	5177	1.60	0.642	102.7	3.4	kcat [7]: 155676 s⁻¹; kcat [15]: 31065 s⁻¹; vMax [15]: 9.57 U/mg
B2	27637	8.55	234.8	50970	15.76	3.9	50718	15.69	99411	30.79	40.69	1.3	83.6	<1	<1	3838	1.19	0.385	249.6	4.0	kcat [15]: 23265 s⁻¹; vMax [15]: 7.20 U/mg
B3	90267	27.67	22.4	29735	9.11	4.4	14784	4.53	12574	3.57	2.87	<1	13.0	<1	<1	9358	2.87	1.801	50.5	1.3	kcat [7]: 9356 s⁻¹; kcat [15]: 10468 s⁻¹; vMax [15]: 3.21 U/mg
